These results are taken from patent publication US20120114682A1 (GEORGIA TECH RESEARCH, published 2012).

The target of experiment [1] is Fibrin matrix (clot) (human) (UniProt P02671). In words: confocal colocalisation, perfused fibrin clot, 0 min.
For experiment [2] the target is unchanged. In words: confocal colocalisation, perfused fibrin clot, 10 min.
For experiment [3] the target is unchanged. In words: confocal colocalisation, perfused fibrin clot, 20 min.
Experiment [4] has the same target. In words: confocal colocalisation, perfused fibrin clot, 30 min.
For experiment [5], the target named is T1, Fibrinogen fragment D (human, UniProt P02671 130-216; P02675 164-491; P02679 114-432, limits assumed).
T1 construct: domain: Fragment D (or D-domain); Made by plasmin digestion of human fibrinogen and purified on GPRPAA beads; holds the C-terminal polymerization pockets without the N-terminal knobs; immobilised by amine coupling on the SPR chip; also called D-domain
T1 sequence (looked up) 1: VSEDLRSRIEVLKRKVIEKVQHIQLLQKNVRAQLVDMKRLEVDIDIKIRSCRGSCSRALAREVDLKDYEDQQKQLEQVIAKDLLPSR
T1 sequence (looked up) 2: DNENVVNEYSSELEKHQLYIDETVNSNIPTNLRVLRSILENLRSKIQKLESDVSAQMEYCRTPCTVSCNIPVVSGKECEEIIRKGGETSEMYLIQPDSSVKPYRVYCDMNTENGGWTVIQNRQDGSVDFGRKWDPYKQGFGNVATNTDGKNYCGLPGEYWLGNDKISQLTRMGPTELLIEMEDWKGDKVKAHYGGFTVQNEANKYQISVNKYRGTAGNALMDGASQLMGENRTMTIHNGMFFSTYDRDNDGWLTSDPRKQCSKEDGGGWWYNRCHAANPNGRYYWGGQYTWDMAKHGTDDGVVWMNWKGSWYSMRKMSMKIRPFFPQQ
T1 sequence (looked up) 3: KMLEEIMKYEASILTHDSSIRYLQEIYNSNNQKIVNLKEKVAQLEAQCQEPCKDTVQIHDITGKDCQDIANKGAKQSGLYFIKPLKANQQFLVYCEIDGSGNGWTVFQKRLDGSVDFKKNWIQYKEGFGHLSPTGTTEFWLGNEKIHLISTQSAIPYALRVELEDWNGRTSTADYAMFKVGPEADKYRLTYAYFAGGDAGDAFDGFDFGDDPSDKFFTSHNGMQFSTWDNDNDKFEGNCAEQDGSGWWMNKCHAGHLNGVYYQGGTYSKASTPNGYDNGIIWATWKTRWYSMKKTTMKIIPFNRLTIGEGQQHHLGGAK
In words: SPR (Biacore 2000), fragment D immobilised, equilibrium response fit to a single-site model.

Experiment [6] has as its target T1, Fibrinogen fragment D. In words: SPR, fragment D immobilised, competitor soluble GPRP peptide in the analyte solution.
The target of experiment [7] is T1, Fibrinogen fragment D. Nature of the experiment: SPR, fragment D immobilised, Langmuir 1:1 model. How it is done:
(§1) Upon stabilization of the baseline signal, kinetic binding experiments were run in duplicate with the peptide variants as the flow analytes. Five varying concentrations for each peptide (0.94 μM to 150 μM) were flowed at 25 μL/min for 4 min immediately followed by a 10 min dissociation phase. Between each run, the surface was regenerated with 1M sodium bromide and 50 mM sodium acetate (pH 6.0). SPR experiments were performed three times with varying peptide injection order to rule out binding trends associated with injection sequence. Peptide solutions were incubated with tris(2-carboxyethyl)phosphine (TCEP) immobilized on agarose beads (Thermo Fisher Scientific, Inc; Rockland, Ill.) to ensure reduction of any disulfide bonds between C-terminal cysteines.
(§2) To investigate the dynamic binding profile between the fibrinogen/fibrin holes and knob peptide variants, SPR was employed. Binding interactions were evaluated by flowing the knob peptides over an immobilized surface of fragment D (FIG. 8). By immobilizing fragment D as opposed to full-length fibrinogen, the kinetic binding model was simplified to a heterogeneous 2-site ligand model (i.e. one hole ‘a’ and hole ‘b’ per ligand) as opposed to a 4-site model (i.e. two of each hole ‘a’ and hole ‘b’ per ligand). The data was modeled using both a Langmuir 1:1 model and a heterogeneous ligand model to compare previously established binding affinities to a more dynamic two-site model. However, the complexity of the heterogeneous model fitted parameters for sites 1 and 2 (i.e. maximal binding response, kₐ, and kd) limits direct designation or assignment of holes ‘a’ or ‘b’ to site 1 or 2. […] All peptide SPR data was fit except for the negative control peptide, GPSPAAC (SEQ ID NO:9), where minimal binding response was observed.
Background: SPR reads the build-up and loss of mass on a sensor chip optically.

Experiment [8] concerns the target T1, Fibrinogen fragment D. Nature of the experiment: SPR, heterogeneous ligand model, site 1 (KD1 = kd/ka). How it is done:
as §1, §2

Experiment [9] has as its target T1, Fibrinogen fragment D. In words: SPR, heterogeneous ligand model, site 2 (KD2 = kd/ka). The protocol: as §1, §2
For experiment [10], the target named is T1, Fibrinogen fragment D. In words: SPR (Biacore 2000), fragment D immobilised, Langmuir 1:1 model. The protocol:
as §1, §2

Experiment [11] deals with T1, Fibrinogen fragment D. Nature of the experiment: SPR, fragment D immobilised, heterogeneous ligand model, site 1. The protocol: as §1, §2
In experiment [12] the target is T1, Fibrinogen fragment D. In words: SPR, fragment D immobilised, heterogeneous ligand model, site 2. How it is done:
as §1, §2

Experiment [13] deals with T1, Fibrinogen fragment D. Nature of the experiment: SPR, fragment D immobilised, heterogeneous ligand model, site 1 (kd1). The protocol:
as §1, §2

Experiment [14] addresses T1, Fibrinogen fragment D. Nature of the experiment: SPR, fragment D immobilised, heterogeneous ligand model, site 2 (ka2). The protocol:
as §1
To investigate the dynamic binding profile between the fibrinogen/fibrin holes and knob peptide variants, SPR was employed. Binding interactions were evaluated by flowing the knob peptides over an immobilized surface of fragment D (FIG. 8). By immobilizing fragment D as opposed to full-length fibrinogen, the kinetic binding model was simplified to a heterogeneous 2-site ligand model (i.e. one hole ‘a’ and hole ‘b’ per ligand) as opposed to a 4-site model (i.e. two of each hole ‘a’ and hole ‘b’ per ligand). […]

In experiment [15] the target is T1, Fibrinogen fragment D. Nature of the experiment: SPR, fragment D immobilised, heterogeneous ligand model, site 2 (kd2). The protocol:
as §1, §2

Experiment [16] has as its target T1, Fibrinogen fragment D. Nature of the experiment: SPR, fragment D immobilised, heterogeneous ligand model, site 1 (ka1). How it is done:
as §1, §2

The next experiment deals with Human fibrinogen (human) (UniProt P02671). Nature of the experiment: competition ELISA: soluble peptide added to fibrinogen, binding of fibrinogen to immobilised GPRP-FnIII9-10-C is measured; signal normalised to the GSPE peptide.

Fibrin matrix (clot) (human), sequence (P02671 36-629 limits assumed, chain 1 of 2): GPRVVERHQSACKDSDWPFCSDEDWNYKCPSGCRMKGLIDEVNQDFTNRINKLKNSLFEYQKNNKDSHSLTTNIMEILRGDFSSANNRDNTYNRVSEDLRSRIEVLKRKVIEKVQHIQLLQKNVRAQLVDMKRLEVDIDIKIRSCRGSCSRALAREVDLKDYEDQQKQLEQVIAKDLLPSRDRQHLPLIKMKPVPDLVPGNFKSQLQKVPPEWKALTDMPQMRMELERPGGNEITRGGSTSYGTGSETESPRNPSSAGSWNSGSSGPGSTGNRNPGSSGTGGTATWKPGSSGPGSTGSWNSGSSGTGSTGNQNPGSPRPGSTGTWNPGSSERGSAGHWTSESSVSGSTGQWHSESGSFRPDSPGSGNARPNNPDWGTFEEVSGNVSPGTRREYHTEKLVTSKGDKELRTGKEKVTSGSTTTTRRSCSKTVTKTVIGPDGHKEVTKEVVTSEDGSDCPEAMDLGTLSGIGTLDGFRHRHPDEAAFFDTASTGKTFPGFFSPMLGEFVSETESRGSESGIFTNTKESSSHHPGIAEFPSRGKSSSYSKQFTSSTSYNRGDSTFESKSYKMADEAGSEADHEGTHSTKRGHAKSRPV
Fibrin matrix (clot) (human), sequence (P02679 other isoform, or with tags, fused parts or gaps limits assumed, chain 3 of 2, further chain): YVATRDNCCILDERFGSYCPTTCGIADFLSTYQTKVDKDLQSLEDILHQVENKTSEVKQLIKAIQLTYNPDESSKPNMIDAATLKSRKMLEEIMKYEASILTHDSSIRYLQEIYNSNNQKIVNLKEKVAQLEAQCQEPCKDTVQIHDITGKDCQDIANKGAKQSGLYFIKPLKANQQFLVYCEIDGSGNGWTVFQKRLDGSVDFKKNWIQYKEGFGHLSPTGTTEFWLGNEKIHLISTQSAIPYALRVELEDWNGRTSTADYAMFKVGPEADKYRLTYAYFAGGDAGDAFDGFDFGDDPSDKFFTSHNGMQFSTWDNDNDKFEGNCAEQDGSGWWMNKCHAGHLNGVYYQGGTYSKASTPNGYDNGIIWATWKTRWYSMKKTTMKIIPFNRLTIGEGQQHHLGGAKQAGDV

Regarding “GPRP-FnIII9-10-AF633 (from UniProt P02751 1448-1631)”, in experiment [1], the Colocalization Coefficient (Fibrin) was 0.981, the Colocalization Coefficient (GPRP-Fn) was found to be 0.965, the Correlation Coefficient (R) came to 0.47 and the Mean Intensity (GPRP-Fn) turned out to be 100. For the same molecule, the Relative Area of Colocalization in experiment [1] is 94.2%. Moreover, in [2], the Colocalization Coefficient (Fibrin) was 0.325, the Colocalization Coefficient (GPRP-Fn) was determined as 0.956, the Correlation Coefficient (R) turned out to be 0.19 and the Mean Intensity (GPRP-Fn) was 55. This molecule had a Relative Area of Colocalization in experiment [2] of 28.5%. In [3], this molecule displayed a Colocalization Coefficient (Fibrin) of 0.219, a Colocalization Coefficient (GPRP-Fn) of 0.948, a Correlation Coefficient (R) of 0.14 and a Mean Intensity (GPRP-Fn) of 52. In [3], this molecule had a Relative Area of Colocalization of 19.1%. In [4], this molecule returned a Colocalization Coefficient (Fibrin) of 0.159, a Colocalization Coefficient (GPRP-Fn) of 0.926, a Correlation Coefficient (R) of 0.11 and a Mean Intensity (GPRP-Fn) of 51. Further, the Relative Area of Colocalization in [4] came to 12.8%.
As to “GPRV-FnIII9-10 (from UniProt P02751 1448-1631)”, the Kd (usually a measure of binding affinity in units of concentration) with Fibrinogen fragment D [5] stood at 125 µM.
As for “GSPE-FnIII9-10-AF633 (from UniProt P02751 1448-1631)”, in experiment [1], the Colocalization Coefficient (Fibrin) was found to be 0.01, the Colocalization Coefficient (GSPE-Fn) stood at 0.739, the Correlation Coefficient (R) is 0.04 and the Mean Intensity (GSPE-Fn) was found to be 46. Further, in [1], the Relative Area of Colocalization worked out at 0.6%. In experiment [2], this molecule had a Colocalization Coefficient (Fibrin) of 0.001, a Colocalization Coefficient (GSPE-Fn) of 0.521, a Correlation Coefficient (R) of -0.06 and a Mean Intensity (GSPE-Fn) of 45. For the same molecule, the Relative Area of Colocalization in experiment [2] came out at 0%. Also, in experiment [3], the Colocalization Coefficient (Fibrin) came to 0.003, the Colocalization Coefficient (GSPE-Fn) worked out at 0.0413, the Correlation Coefficient (R) was 0.02 and the Mean Intensity (GSPE-Fn) came out at 44. In experiment [3], this molecule came in with a Relative Area of Colocalization of 0.1%. In experiment [4], this molecule came in with a Colocalization Coefficient (Fibrin) of 0.003, a Colocalization Coefficient (GSPE-Fn) of 0.377, a Correlation Coefficient (R) of -0.02 and a Mean Intensity (GSPE-Fn) of 38. Also, in experiment [4], the Relative Area of Colocalization was 0.1%.
Regarding “GPRP-FnIII9-10 (from UniProt P02751 1448-1631)”, in the experiment with Fibrinogen fragment D [6], the KD in the presence of a 10-molar excess of soluble GPRP peptide came to 43 µM. In the experiment with Fibrinogen fragment D [5], the Kd was 3 µM.

B1: GPRVVERC (peptide)
peptide: GPRVVERC
notes: Synthetic (GenScript); also called knob 'A' peptide
On to B1, for which the koff (usually the rate constant with which the complex falls apart) worked out at 0.0234 s⁻¹ in the experiment with Fibrinogen fragment D [7], 0.0577 s⁻¹ in the experiment with Fibrinogen fragment D [13] and 0.00407 s⁻¹ with Fibrinogen fragment D [15]. Moreover, the kon (usually the second-order rate constant of association) with Fibrinogen fragment D [7] was 280 M⁻¹ s⁻¹; with Fibrinogen fragment D [14], 260 M⁻¹ s⁻¹. In addition, the Kd came to 53.9 µM with Fibrinogen fragment D [8] and 15.7 µM in the experiment with Fibrinogen fragment D [9]. In addition, in the experiment with Fibrinogen fragment D [10], the “Bmax (maximal binding capacity of fragment D)” value was found to be 16.3 RU. In the experiment with Fibrinogen fragment D [11], the “Bmax (maximal binding capacity of fragment D, site 1)” value amounted to 25.6 RU. The “B*max (maximal binding capacity of fragment D, site 2)” value (“B*max” below) with Fibrinogen fragment D [12] worked out at 10.3 RU.

B2: GPRVVAAC (peptide)
peptide: GPRVVAAC
notes: as for B1
Regarding B2, the koff is 0.0107 s⁻¹ with Fibrinogen fragment D [7], 0.0301 s⁻¹ with Fibrinogen fragment D [13] and 0.001 s⁻¹ with Fibrinogen fragment D [15]. In addition, the values for the Kd with Fibrinogen fragment D [8] and in the experiment with Fibrinogen fragment D [9] were 48.5 µM and 25 µM, respectively. Besides, the “Bmax (maximal binding capacity of fragment D)” value in the experiment with Fibrinogen fragment D [10] was found to be 18.9 RU. Moreover, the “Bmax (maximal binding capacity of fragment D, site 1)” value with Fibrinogen fragment D [11] stood at 8.36 RU. In the experiment with Fibrinogen fragment D [12], the “B*max” value came out at 13.5 RU. Further, the kon with Fibrinogen fragment D [16] was 620 M⁻¹ s⁻¹.
GPRV [GPRV tetrapeptide] displayed an IC50 (read off the curve) in the experiment with Human fibrinogen (human) of 200 mg/L.

B3: GPRPFPAC (peptide)
peptide: GPRPFPAC
notes: as for B1
Turning to B3, the koff was determined as 0.00727 s⁻¹ with Fibrinogen fragment D [7], 0.0811 s⁻¹ in the experiment with Fibrinogen fragment D [13] and 0.00196 s⁻¹ in the experiment with Fibrinogen fragment D [15]. The kon with Fibrinogen fragment D [7] was 12500 M⁻¹ s⁻¹; with Fibrinogen fragment D [16], 21700 M⁻¹ s⁻¹; with Fibrinogen fragment D [14] it was 1810 M⁻¹ s⁻¹. In addition, the Kd with Fibrinogen fragment D [8] stood at 3.73 µM; in the experiment with Fibrinogen fragment D [9] it was 1.08 µM. The “Bmax (maximal binding capacity of fragment D)” value with Fibrinogen fragment D [10] was 17.7 RU. For the same molecule, the “Bmax (maximal binding capacity of fragment D, site 1)” value with Fibrinogen fragment D [11] stood at 17.6 RU. In addition, the “B*max” value in the experiment with Fibrinogen fragment D [12] is 11.3 RU.

B4: GPRPPERC (peptide)
peptide: GPRPPERC
notes: as for B1
For the molecule B4, the figures for the koff with Fibrinogen fragment D [7], with Fibrinogen fragment D [13] and with Fibrinogen fragment D [15] were 0.00992 s⁻¹, 0.0587 s⁻¹ and 0.00296 s⁻¹, respectively. Also, the results for the kon in the experiment with Fibrinogen fragment D [7] and with Fibrinogen fragment D [16] were 1290 M⁻¹ s⁻¹ and 3220 M⁻¹ s⁻¹, respectively. For the same molecule, the Kd with Fibrinogen fragment D [8] was 18.2 µM; with Fibrinogen fragment D [9], 2.93 µM. In addition, the “Bmax (maximal binding capacity of fragment D)” value in the experiment with Fibrinogen fragment D [10] was 19.2 RU. For the same molecule, the “Bmax (maximal binding capacity of fragment D, site 1)” value in the experiment with Fibrinogen fragment D [11] stood at 14.6 RU. In addition, the “B*max” value with Fibrinogen fragment D [12] was 5.92 RU.

B5: GPRPAAC (peptide)
peptide: GPRPAAC
notes: Synthetic (GenScript); kept reduced with immobilised TCEP; also called gold standard GPRP mimic; knob 'A' peptide
Regarding B5, the results for the koff with Fibrinogen fragment D [7], with Fibrinogen fragment D [13] and with Fibrinogen fragment D [15] were 0.0117 s⁻¹, 0.0128 s⁻¹ and 0.00895 s⁻¹, respectively. The kon in the experiment with Fibrinogen fragment D [7] stood at 1140 M⁻¹ s⁻¹; with Fibrinogen fragment D [16] it was 2840 M⁻¹ s⁻¹. For the same molecule, the Kd amounted to 4.53 µM in the experiment with Fibrinogen fragment D [8] and 8.52 µM with Fibrinogen fragment D [9]. Besides, in the experiment with Fibrinogen fragment D [10], the “Bmax (maximal binding capacity of fragment D)” value was 21.5 RU. Besides, in the experiment with Fibrinogen fragment D [11], the “Bmax (maximal binding capacity of fragment D, site 1)” value was determined as 19.4 RU. For the same molecule, the “B*max” value in the experiment with Fibrinogen fragment D [12] stood at 5.91 RU.
